Measurements taken from the supplement of paper PMC7877785.
± gives the uncertainty stated by the source.

Assay: self-splicing fitness, log relative to wild type (ln ratio); higher = more splicing; Tetrahymena group I intron in knt gene, E. coli kanamycin selection, DiMSum; sequences stand for … in CUCUCU…GGAGGGAAAAGUUAUCAGGCAUGCACCUGGUAGCUAGUCUUUAAACCAAUAGAUUGCAUCGGUUUAAAAGGCAAGACCGUCAAAUUGCGGGAAAGGGGUCAACAGCCGUUCAGUACCAAGUCUCAGGGGAAACUUUGAGAUGGCCUUGCAAAGGGUAUGGUAAUAAGCUGACGGACAUGGUCCUAACCACGCAGCCAAGUCCUAAGUCAACAGAUCUUCUGUUGAUAUGGAUGCAGUUCACAGACUAAAUGUCGGUCGGGGAAGAUGUAUUCUUCUCAUAAGAUAUAGUCGGACCUCUCCUUAAUGGGAGCUAGCGGAUGAAGUGAUGCAACACUGGAGCCGCUGGGAACUAAUUUGUAUGCGAAAGUAUAUUGAUUAGUUUUGGAGUACUCGUGGUCG
Method in brief: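 Fitness was computed with DiMSum as the error-weighted combination of replicate fold changes, kanamycin versus none, each normalised to wild type. The library randomised all eight intron nucleotides of the P1ex region, with the intron placed in the knt kanamycin-resistance gene on pET-22b(+) in E. coli BL21(DE3). Six replicate transformations were grown overnight at 37°C or 30°C on LB agar with or without 25 μg/mL kanamycin, plus 100 μg/mL carbenicillin, 50 μM IPTG and 0.2% rhamnose. Pooled colonies were amplicon-sequenced on an Illumina HiSeq 2500.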

Sequence	self-splicing fitness (ln) (30 °C)	self-splicing fitness (ln) (37 °C)
GUGCAGCAAUAUUACGUUAA	-1.75 ± 0.13	-1.25 ± 0.13
GUGCAGCAAUAUUACGUUCC	-2.72 ± 0.18	-1.05 ± 0.25
GUGCAGCAAUAUUACGUUGG	-2.58 ± 0.084	-1.56 ± 0.097
GUGGAGCAAUAUUACGACGA		-1.12 ± 0.46
GUGGAGCAAUAUUACGAGUA		-1.96 ± 0.44
GUGGAGCAAUAUUACGCUUG	-1.21 ± 0.16	-1.25 ± 0.21
GUGGAGCAAUAUUACGGCGA	-0.352 ± 0.17	-1.43 ± 0.23
GUGGAGCAAUAUUACGGCUU	-1.6 ± 0.28	
GUGGAGCAAUAUUACGGGCA	-2.2 ± 0.28	-1.76 ± 0.45
GUGGAGCAAUAUUACGUAAC	-0.784 ± 0.18	-0.991 ± 0.28
GUGGAGCAAUAUUACGUACG		-2.05 ± 0.23
GUGGAGCAAUAUUACGUUUG	-3.31 ± 0.26	-2.79 ± 0.3
GUGUAGCAAUAUUACGAAAC	-3.2 ± 0.41	-1.89 ± 0.34
GUGUAGCAAUAUUACGAUCU	-1.04 ± 0.1	0.329 ± 0.11
GUGUAGCAAUAUUACGAUUA	-1.58 ± 0.27	0.0491 ± 0.2
GUGUAGCAAUAUUACGCACA		-1.5 ± 0.2
GUGUAGCAAUAUUACGCAGU	-3.25 ± 0.21	-2.46 ± 0.23
GUGUAGCAAUAUUACGCCAA		-1.85 ± 0.34
GUGUAGCAAUAUUACGCCAG		-1.12 ± 0.5
GUGUAGCAAUAUUACGCCGU	-1.25 ± 0.17	-1.67 ± 0.36
GUGUAGCAAUAUUACGCGAA	-2.15 ± 0.17	-0.555 ± 0.14
GUGUAGCAAUAUUACGCGUU		-0.621 ± 0.17
GUGUAGCAAUAUUACGCUAA	-1.77 ± 0.42	-1.01 ± 0.3
GUGUAGCAAUAUUACGCUUG	-1.07 ± 0.16	-1.57 ± 0.27
GUGUAGCAAUAUUACGGAUU	-2.13 ± 0.087	-1.16 ± 0.11

Sequence	self-splicing fitness (ln) (30 °C)	self-splicing fitness (ln) (37 °C)
GUGUAGCAAUAUUACGGCGA	-1.18 ± 0.089	-0.268 ± 0.098
GUGUAGCAAUAUUACGGGCU	-2.88 ± 0.46	-0.129 ± 0.14
GUGUAGCAAUAUUACGGUCC	-1.7 ± 0.23	-0.716 ± 0.25
GUGUAGCAAUAUUACGGUCG	-1.32 ± 0.16	-0.824 ± 0.25
GUGUAGCAAUAUUACGUACC	-1.2 ± 0.29	-0.885 ± 0.37
GUGUAGCAAUAUUACGUACU	-1.52 ± 0.095	-1.19 ± 0.14
GUGUAGCAAUAUUACGUAGG	-2.66 ± 0.18	-1.5 ± 0.18
GUGUAGCAAUAUUACGUGAA	-1.94 ± 0.19	-0.954 ± 0.2
GUGUAGCAAUAUUACGUGAG	-1.23 ± 0.095	-0.931 ± 0.093
GUGUAGCAAUAUUACGUGCU	-1.44 ± 0.11	-1.09 ± 0.13
GUGUAGCAAUAUUACGUUAG	-2.45 ± 0.25	-1.56 ± 0.22
GUUAAGCAAUAUUACGAAGG	-2.17 ± 0.18	-1.87 ± 0.28
GUUAAGCAAUAUUACGACUA	-0.731 ± 0.13	-0.438 ± 0.11
GUUAAGCAAUAUUACGAGCG	-1.54 ± 0.11	-0.685 ± 0.13
GUUAAGCAAUAUUACGCCAU	-2.03 ± 0.27	-1.26 ± 0.3
GUUAAGCAAUAUUACGGCCC	0.0722 ± 0.14	0.517 ± 0.17
GUUAAGCAAUAUUACGGCGA	-0.403 ± 0.096	-0.122 ± 0.11
GUUAAGCAAUAUUACGGGCA	-0.851 ± 0.15	-1.14 ± 0.14
GUUAAGCAAUAUUACGGUAC	-1.7 ± 0.17	-1.33 ± 0.22
GUUAAGCAAUAUUACGUACA	-1.04 ± 0.11	-0.694 ± 0.16
GUUAAGCAAUAUUACGUCGU	-0.93 ± 0.078	-0.441 ± 0.081
GUUAAGCAAUAUUACGUGAC	-1.93 ± 0.24	-2.56 ± 0.37
GUUAAGCAAUAUUACGUUAA	-2.24 ± 0.17	-1.79 ± 0.17
GUUAAGCAAUAUUACGUUAC	-2.36 ± 0.19	-1.33 ± 0.15
GUUAAGCAAUAUUACGUUCA	-0.268 ± 0.09	-0.472 ± 0.11

Sequence	self-splicing fitness (ln) (30 °C)	self-splicing fitness (ln) (37 °C)
GUUCAGCAAUAUUACGAAAG	-0.36 ± 0.24	0.462 ± 0.22
GUUCAGCAAUAUUACGAAAU	-0.0391 ± 0.068	0.236 ± 0.12
GUUCAGCAAUAUUACGACAU	-0.0137 ± 0.013	0.437 ± 0.033
GUUCAGCAAUAUUACGACGC	0.0985 ± 0.12	0.651 ± 0.23
GUUCAGCAAUAUUACGCAGC	-3.43 ± 0.29	-1.1 ± 0.2
GUUCAGCAAUAUUACGCGAA	-2.26 ± 0.27	-1.82 ± 0.28
GUUCAGCAAUAUUACGCGCG	-0.45 ± 0.31	-0.279 ± 0.23
GUUCAGCAAUAUUACGCGGG	-2.32 ± 0.14	-0.613 ± 0.1
GUUCAGCAAUAUUACGGAAC	-3.19 ± 0.2	-2.09 ± 0.38
GUUCAGCAAUAUUACGGAGG	-2.38 ± 0.13	-1.22 ± 0.17
GUUCAGCAAUAUUACGGAGU	-1.48 ± 0.12	-0.963 ± 0.15
GUUCAGCAAUAUUACGGGAA	-1.16 ± 0.14	-0.278 ± 0.13
GUUCAGCAAUAUUACGGGAC	-2.39 ± 0.18	-1.16 ± 0.19
GUUCAGCAAUAUUACGGUAU	-0.357 ± 0.062	0.309 ± 0.073
GUUCAGCAAUAUUACGGUUC	-1.66 ± 0.14	0.019 ± 0.18
GUUCAGCAAUAUUACGUCAG	-3.88 ± 0.23	-3.07 ± 0.24
GUUCAGCAAUAUUACGUCUC	-0.362 ± 0.065	0.216 ± 0.083
GUUCAGCAAUAUUACGUGAC	-1.85 ± 0.11	-2.22 ± 0.12
GUUCAGCAAUAUUACGUGUA	-0.88 ± 0.078	-0.647 ± 0.071
GUUCAGCAAUAUUACGUUGA	-3.12 ± 0.28	-1.57 ± 0.17
GUUCAGCAAUAUUACGUUUC	-0.965 ± 0.07	-0.339 ± 0.084
GUUGAGCAAUAUUACGAGAG	-3.95 ± 0.4	-2.63 ± 0.41
GUUGAGCAAUAUUACGCAUC	-1.26 ± 0.25	
GUUGAGCAAUAUUACGCGGU	-3.32 ± 0.41	-2.73 ± 0.34
GUUGAGCAAUAUUACGCUAG	-3.01 ± 0.44	

Sequence	self-splicing fitness (ln) (30 °C)	self-splicing fitness (ln) (37 °C)
GUUGAGCAAUAUUACGCUGU	-4.02 ± 0.22	-2.15 ± 0.19
GUUGAGCAAUAUUACGGAAC	-1.6 ± 0.43	
GUUGAGCAAUAUUACGGAGC	-1.01 ± 0.2	-2.82 ± 0.3
GUUGAGCAAUAUUACGGAUC	-1.91 ± 0.14	-1.16 ± 0.14
GUUGAGCAAUAUUACGGCCA		-0.675 ± 0.24
GUUGAGCAAUAUUACGGCUA	-0.763 ± 0.18	-0.798 ± 0.19
GUUGAGCAAUAUUACGGUAG	-4.24 ± 0.46	-1.94 ± 0.41
GUUGAGCAAUAUUACGGUUU	-4.2 ± 0.33	-2.73 ± 0.32
GUUGAGCAAUAUUACGUAUU	-3.74 ± 0.47	
GUUGAGCAAUAUUACGUCUA	-2.72 ± 0.46	-0.927 ± 0.24
GUUGAGCAAUAUUACGUGCG	-3.02 ± 0.21	-2.07 ± 0.25
GUUGAGCAAUAUUACGUGGG	-3.09 ± 0.23	-1.97 ± 0.18
GUUGAGCAAUAUUACGUGUG	-3.65 ± 0.34	-3.15 ± 0.32
GUUGAGCAAUAUUACGUUCA	-2.3 ± 0.5	-1.52 ± 0.25
GUUUAGCAAUAUUACGAACG	-1.78 ± 0.21	-1.03 ± 0.29
GUUUAGCAAUAUUACGACCU	-1.03 ± 0.11	-0.456 ± 0.14
GUUUAGCAAUAUUACGACUU	-0.551 ± 0.11	0.304 ± 0.14
GUUUAGCAAUAUUACGAUAC	-1.44 ± 0.18	-0.147 ± 0.28
GUUUAGCAAUAUUACGAUCC	-0.72 ± 0.26	-0.434 ± 0.32
GUUUAGCAAUAUUACGAUUC	-0.603 ± 0.098	0.273 ± 0.14
GUUUAGCAAUAUUACGCAAC	-3.59 ± 0.48	-2.14 ± 0.39
GUUUAGCAAUAUUACGCAUG	-2.59 ± 0.18	-0.4 ± 0.18
GUUUAGCAAUAUUACGCCAU	-1.68 ± 0.4	
GUUUAGCAAUAUUACGCGAG	-1.48 ± 0.17	-0.934 ± 0.16
